The numbers were not newly measured in paper PMC6628902, which cites them from elsewhere.

By pKd is commonly meant −log10 of the Kd, conventionally taken in molar units.

pKd: −log10 of the molar value.

This data set addresses CXCL12 (Homo sapiens) (UniProt P48061).

Sequence of CXCL12 (Homo sapiens) (P48061 22-89): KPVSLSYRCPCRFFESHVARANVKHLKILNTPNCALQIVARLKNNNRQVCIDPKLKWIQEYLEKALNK
Sequence of CXCR4 (P61073 whole entry): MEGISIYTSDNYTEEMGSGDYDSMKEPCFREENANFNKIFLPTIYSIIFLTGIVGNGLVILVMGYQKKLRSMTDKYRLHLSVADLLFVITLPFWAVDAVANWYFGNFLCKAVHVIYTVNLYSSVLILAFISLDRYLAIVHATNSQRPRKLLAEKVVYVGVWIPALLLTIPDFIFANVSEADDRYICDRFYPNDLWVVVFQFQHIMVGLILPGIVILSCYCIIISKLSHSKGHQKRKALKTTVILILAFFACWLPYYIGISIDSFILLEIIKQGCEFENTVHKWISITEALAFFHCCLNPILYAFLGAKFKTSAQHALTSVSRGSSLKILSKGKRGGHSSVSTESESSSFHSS

In the case of CXCR4 (from UniProt P61073), the pKd was 8.35.
